Biological target: F protein on live RSV virus (strain not stated) (respiratory syncytial virus)
Assay: cell-based or functional assay

IC50, plaque neutralization assay on HEp2 cells with rabbit complement: 0.3 µg/mL | affinity corresponding to the IC50 of the plaque neutralization assay: 2 nM
Substance: Synagis® (palivizumab) (antibody)

Source: patent US20100285022A1
